Data as given in the supplement of paper PMC11246515.
± gives the standard deviation of the averaged measurements.

Assay: total protein half-life in vivo (active degradation + dilution); higher = more stable protein
[1] = E. coli NCM3722 delta-clpP delta-lon delta-hslV, growth: N-lim chemostat, doubling time 6 h
[2] = E. coli NCM3722 delta-clpP, growth: N-lim chemostat, doubling time 6 h
[3] = E. coli NCM3722 delta-hslV, growth: N-lim chemostat, doubling time 6 h
[4] = E. coli NCM3722 delta-lon, growth: N-lim chemostat, doubling time 6 h
[5] = E. coli NCM3722 delta-smpB, growth: N-lim chemostat, doubling time 6 h
[6] = wild type E. coli NCM3722, growth: C-lim chemostat, doubling time 3 h
[7] = wild type E. coli NCM3722, growth: C-lim chemostat, doubling time 6 h
[8] = wild type E. coli NCM3722, growth: C-lim chemostat, doubling time 12 h
[9] = wild type E. coli NCM3722, growth: N-lim chemostat, doubling time 6 h
[10] = wild type E. coli NCM3722, growth: N-lim chemostat, doubling time 12 h
[11] = wild type E. coli NCM3722, growth: P-lim chemostat, doubling time 6 h
[12] = wild type E. coli NCM3722, growth: P-lim chemostat, doubling time 12 h

Row | Sequence | total protein half-life in vivo [1] [h] | total protein half-life in vivo [2] [h] | total protein half-life in vivo [3] [h] | total protein half-life in vivo [4] [h] | total protein half-life in vivo [5] [h] | total protein half-life in vivo [6] [h] | total protein half-life in vivo [7] [h] | total protein half-life in vivo [8] [h] | total protein half-life in vivo [9] [h] | total protein half-life in vivo [10] [h] | total protein half-life in vivo [11] [h] | total protein half-life in vivo [12] [h]
1 | MTRKQATIAVRSGLNDDEQYGCVVPPIHLSSTYNFTGFNEPRAHDYSRRGNPTRDVVQRALAELEGGAGAVLTNTGMSAIHLVTTVFLKPGDLLVAPHDCYGGSYRLFDSLAKRGCYRVLFVDQGDEQALRAALAEKPKLVLVESPSNPLLRVVDIAKICHLAREVGAVSVVDNTFLSPALQNPLALGADLVLHSCTKYLNGHSDVVAGVVIAKDPDVVTELAWWANNIGVTGGAFDSYLLLRGLRTLVPRMELAQRNAQAIVKYLQTQPLVKKLYHPSLPENQGHEIAARQQKGFGAMLSFELDGDEQTLRRFLGGLSLFTLAESLGGVESLISHAATMTHAGMAPEARAAAGISETLLRISTGIEDGEDLIADLENGFRAANKG | 4.37 ± 0.79 | 4.07 ± 0.43 | 3.31 ± 0.36 | 4.53 ± 0.59 | 3.95 ± 0.28 | 3.1 ± 0.16 | 4.98 ± 0.61 | 10 ± 0.44 | 3.56 ± 0.17 | 5.84 ± 0.7 | 5.83 ± 0.5 | 11.7 ± 1.1
2 | MTRLAEILDQMSAVLNDLKTVMDQEQQHLSMGQINGSQLQWITEQKSSLLATLDYLEQLRRKEPNTANSVDISQRWQEITVKTQQLRQMNQHNGWLLEGQIERNQQALEMLKPHQEPTLYGANGQTSTTHRGGKKISI |  |  |  |  |  | 1.15 ± 0.27 | 4.91 | 3.28 |  |  |  | 
3 | MTRLTLALDVMGGDFGPSVTVPAALQALNSNSQLTLLLVGNSDAITPLLAKADFEQRSRLQIIPAQSVIASDARPSQAIRASRGSSMRVALELVKEGRAQACVSAGNTGALMGLAKLLLKPLEGIERPALVTVLPHQQKGKTVVLDLGANVDCDSTMLVQFAIMGSVLAEEVVEIPNPRVALLNIGEEEVKGLDSIRDASAVLKTIPSINYIGYLEANELLTGKTDVLVCDGFTGNVTLKTMEGVVRMFLSLLKSQGEGKKRSWWLLLLKRWLQKSLTRRFSHLNPDQYNGACLLGLRGTVIKSHGAANQRAFAVAIEQAVQAVQRQVPQRIAARLESVYPAGFELLDGGKSGTLR |  | 6.24 ± 1.2 | 5.82 ± 0.97 |  | 5.36 ± 0.15 | 2.67 ± 0.076 | 5.52 ± 0.33 | 10.8 ± 1.9 | 5.32 ± 0.21 | 9.51 ± 0.53 | 5.34 ± 0.72 | 8.85 ± 1.9
4 | MTRTNLITGFLGSGKTTSILHLLAHKDPNEKWAVLVNEFGEVGIDGALLADSGALLKEIPGGCMCCVNGLPMQVGLNTLLRQGKPDRLLIEPTGLGHPKQILDLLTAPVYEPWIDLRATLCILDPRLLLDEKSASNENFRDQLAAADIIVANKSDRTTPESEQALQRWWQQNGGDRQLIHSEHGKVDGHLLDLPRRNLAELPASAAHSHQHVVKKGLAALSLPEHQRWRRSLNSGQGYQACGWIFDADTVFDTIGILEWARLAPVERVKGVLRIPEGLVRINRQGDDLHIETQNVAPPDSRIELISSSEADWNALQSALLKLRLATTA | 4.59 ± 0.6 | 4.12 ± 0.58 | 3.4 ± 0.12 | 3.83 ± 0.31 | 3.47 ± 0.083 | 2.66 ± 0.31 | 5.66 ± 0.057 | 9.04 ± 0.88 | 3.47 ± 0.12 | 5.62 ± 0.064 | 5.197 ± 0.035 | 9.17 ± 0.28
5 | MTSENPLLALREKISALDEKLLALLAERRELAVEVGKAKLLSHRPVRDIDRERDLLERLITLGKAHHLDAHYITRLFQLIIEDSVLTQQALLQQHLNKINPHSARIAFLGPKGSYSHLAARQYAARHFEQFIESGCAKFADIFNQVETGQADYAVVPIENTSSGAINDVYDLLQHTSLSIVGEMTLTIDHCLLVSGTTDLSTINTVYSHPQPFQQCSKFLNRYPHWKIEYTESTSAAMEKVAQAKSPHVAALGSEAGGTLYGLQVLERIEANQRQNFTRFVVLARKAINVSDQVPAKTTLLMATGQQAGALVEALLVLRNHNLIMTRLESRPIHGNPWEEMFYLDIQANLESAEMQKALKELGEITRSMKVLGCYPSENVVPVDPT [P0A9J8] | 5.3 ± 1.8 | 4.03 ± 0.25 | 4.9 ± 1.2 | 4.67 ± 0.14 | 4.1437 ± 0.0033 | 2.62 ± 0.6 | 5.375 ± 0.04 | 11 ± 0.42 | 4.129 ± 0.037 | 6.55 ± 0.09 | 5.88 ± 0.58 | 11.77 ± 0.076
6 | MTSLVVPGLDTLRQWLDDLGMSFFECDNCQALHLPHMQNFDGVFDAKIDLIDNTILFSAMAEVRPSAVLPLAADLSAINASSLTVKAFLDMQDDNLPKLVVCQSLSVMQGVTYEQFAWFVRQSEEQISMVILEANAHQLLLPTDDEGQNNVTENYFLH [P0AAY6] | 2.64 ± 2.3 |  | 2.7 | 4.39 | 1.74 ± 1.4 |  |  | 1.21 | 0.868 |  |  | 
7 | MTSSLPCGQTSLLLQMTERLALSDAHFRRISQLIYQRAGIVLADHKRDMVYNRLVRRLRSLGLTDFGHYLNLLESNQHSGEWQAFINSLTTNLTAFFREAHHFPLLADHARRRSGEYRVWSAAASTGEEPYSIAMTLADTLGTAPGRWKVFASDIDTEVLEKARSGIYRHEELKNLTPQQLQRYFMRGTGPHEGLVRVRQELANYVDFAPLNLLAKQYTVPGPFDAIFCRNVMIYFDQTTQQEILRRFVPLLKPDGLLFAGHSENFSHLERRFTLRGQTVYALSKD |  | 6.56 |  |  |  | 1.34 |  | 3.42 |  |  |  | 
8 | MTSSYLHFPEFDPVIFSIGPVALHWYGLMYLVGFIFAMWLATRRANRPGSGWTKNEVENLLYAGFLGVFLGGRIGYVLFYNFPQFMADPLYLFRVWDGGMSFHGGLIGVIVVMIIFARRTKRSFFQVSDFIAPLIPFGLGAGRLGNFINGELWGRVDPNFPFAMLFPGSRTEDILLLQTNPQWQSIFDTYGVLPRHPSQLYELLLEGVVLFIILNLYIRKPRPMGAVSGLFLIGYGAFRIIVEFFRQPDAQFTGAWVQYISMGQILSIPMIVAGVIMMVWAYRRSPQQHVS | > 8 |  |  | 7.73 |  |  |  |  | 6.89 ± 0.72 |  | 6.28 ± 0.24 | 11.5 ± 0.95
9 | MTTLSCKVTSVEAITDTVYRVRIVPDAAFSFRAGQYLMVVMDERDKRPFSMASTPDEKGFIELHIGASEINLYAKAVMDRILKDHQIVVDIPHGEAWLRDDEERPMILIAGGTGFSYARSILLTALARNPNRDITIYWGGREEQHLYDLCELEALSLKHPGLQVVPVVEQPEAGWRGRTGTVLTAVLQDHGTLAEHDIYIAGRFEMAKIARDLFCSERNAREDRLFGDAFAFI [P0AEN1] | 5.7 ± 0.93 | 4.72 ± 0.087 | 4.19 ± 0.12 | 4.62 ± 0.48 | 4.21 ± 0.8 | 2.74 ± 0.19 | 5.78 ± 0.43 | 8.71 ± 1.9 | 4.2 ± 0.26 | 7.18 ± 0.22 | 4.62 ± 1 | 9.49 ± 0.3
